From a protein production outcome set (Wang et al. 2014)

Assay: label from the status in PepcDB records

Sequence | protein production
MAYDDMGFPVSVSGPARRVVSLVPSLTEAIAHTRREALVGATDWCTHPAGLDVARVRGTKNPDRAAIAALRPDLVIANKEENRELDVRMLRAAGIPVWVTVIQTVPQALDSLTRLFTEALCWPLPDWLVEARRLWSHPLPPVRARVAIPVWRDPWMVVGSATFTGDLARRLGLANVFADHPERYPKVALADIDRDDVDLVVLPDEPYAFTPQDGPEAFRCAPTVLVSGRLLTWYGPSLLHAKEGLAALVQ | failed
MSSNPLRFFVLTIFPHIISCYSEYGIVKQAIKKGKVEVYPIDLREFAPKGQVDDVPYGGLPGMVLKPEPIYEAYDYVVENYGKPFVLITEPWGEKLNQKLVNELSKKERIMIICGRYEGVDERVKKIVDMEISLGDFILSGGEIVALAVIDAVSRVLPGVLSEPQSIQEDSFQNRWLGYPVYTRPREYRGMKVPEELLSGHHKLIELWKLWHRIENTVKKRPDLIPKDLTELEKDILNSILSGKSFKEWLKEHKHLL | not failed
MFFLSDHDTLISSIEAIGASFAVFEFDPQSVAFELVSCNSRYEDLMGYSSAKALGQPLTTIFPRYIHNPLKEAFIHCKNERIALETEIVLDYKGQERCWRSIVSPIVNSADEKFRIIQTCVEITEKKVLEKQLNLSMKRFEAVVNNAYDGIITIDEQQNVKLFNEAAQSMFGYSEQEIMGQPLTKLLPEKYQAKHHGYVEGFKRSQVDSRPMQTRAAVQGLRKDGSEFAIEVTISKIRIADNVEFTAVIRDISEKNQLLEELILSSRRDPLTELYNRRYFTELLHSEITRSRRFKRGFSLLMLDIDHFKSINDRYGHACGDAALIAFSKAVTNSIREVDTICRWGGEEFLVLLPEIPKVTAMVVAEKIRKNIENLETIYEGDLIKVTVSIGLEYFSGDAIEMSSMINKVDQILYRAKDTGRNKISTEI | failed
QVSDEDVMLMIRQGAKKGVFESVEYEMISRIFRMSDKRASALMTPRNEIEWLDLERPDEELVARIKASGRSRFPVAKGSLDELQGVVRSLDLVNFSLSSKGSIREAIRASMKPPLFVPESVPAFHVLELFKKNRAHMALVIDEHGSVQGAITLTDVLESIVGDVPADDMEGD | failed
MTDQSVRIIEAALRLYMKKPPHEVSIEEIAREAKVSKSLIFYHFESKQKLLEEAVMHAFRKMMEEFNPRSVEEVVDYGIGFIAERREFIEFMMYALSQVRIEELERMFGEALEKVASLFEGCRHPRETAIALMAMLDGLSIYSLYFDLGKLEKYREIAMEFVESRRVRA | not failed
MNQLPNCPKCLSEYCYEDGDVLICPECTHEWPKNSNNNDEESAKIIKDANGNLLQNGDTITVVKDLKIKGSSQVIKVGTKVKNIRLVDGDHDIDCRIDGIGAMKLKSQFVKKILEHHHHHH | failed
MSAKKLFIQTLGCAMNVRDSEHMIAELTQKENYALTEDIKEADLILINTCSVREKPVHKLFSEVGGFEKVKKEGAKIGVCGCTASHLGNEIFKRAPYVDFVLGARNISKITQAIKTPKFMGVDIDYDESEFAFADFRNSIYKSYINISIGCDKHCTYCIVPHTRGDEISIPFNIIYKEAQKAIEKGAKEIFLLGQNVNNYGKRFRNEHKKMDFSDLLEELSTIEGLERIRFTSPHPLHMDDKFLEVFANNPKVCKSMHMPLQSGSSEILKAMKRGYTKEWYLNRALKLRELCPNVSISTDIIVAFPGESEKDFEETVDVLEKVRFEQIFSFKYSKRPLTKAATMPNQIDEEIASRRLSTLQNRHSEILDKIVKKQENKTFKVLFEELRAGNSIAGRTDNNFLVQVEGSEELLGQFKEVKITNAKRMVLYGEIVLEHHHHHH | failed
MACEGAPEVRIGRKPVMNYVLAILTTLMEQGTNQVVVKARGRNINRAVDAVEIVRKRFAKNIEIKDIKIDSQEIEVQTPEGQTRTRRVSSIEICLEKAGESA | not failed
MSLKFFLKAYARIAAIAAAVVLVCVLLFNGINSVREQYWHEQAMTPVMRWLAAAPDPLSQYHWMAPMFGLHSGVAADFGLSQVALERLGYGQVVAQSTDSGYGYYVLGLGGEVLGIHLEQPYRDLARAISLMVRWHLDTSPAAQRADVAQQLAESLNLDIRLVQKTEDLPDQQALERLGDTGLAIFEHGDNRARALVRLSEGALVVVTLPPPFNPWGWPIILLLTAVVGGVLAVALFLALRFVESHLRKVESVAIRIARGEMGARVESEQGTLVSRLGTSFNGMAEHIQRLVQVQREMIHAVSHELRTPVARIRFGVQMIESGSTQEVLEKQLEGIDGDIQELDELIDEILTYARLEQGGPVFSLREGSVTDIVRQVVSEQRLIREGVDIECQIDEASERWAQADMEPRYIHRAIQNLVGNAARYAAGRVQVSCHLDEDNCRIDVEDDGPGIPEQDWEKVFTAFARLDDSRTRTSGGYGLGLSIVRRILYWHGGQAFVGRSDVLGGARFSLVWPRLKPADPDL | failed
SDESDLPSAMPAVPAFGVEERNMVSGVLTLAERSIRSIMTPRTDVSWVNIDDDAATIRQQLTAAPHSFFPVCRGSLDEVVGIGRAKDLVADLITEGRVRRNRLRDPIIVHESIGILRLMDTLKRSRGQLVLVADEFGAIEGLVTPIDVFEAIAGEFPDEDELPDIVAESE | not failed
MHYAFSRIRLRSFFGWMIIGVFLIMIPLDLTNVSENTMEVISQITVFFVFPLLWLYVKTNKNNVVFNSFFDKPGRLSWGLIVLATIMGMIFSVGISQIQFYILAHTLPNFLVTMLEDGNVINTSNVYMTIFTFISACVLAPIMEEVIFRGFFLQRMAYKWGIKKAVIISSIIFGLGHFDVIGAFMFGVVMCLLYIKTKNIWTNIAVHALNNLIATSMQFFGGEESGTISITELQAQSNLWIGIGLTVVGLLWLIPYVWKQWRTVKEVGVPPVRFINEQKVVSSSQENEVYSQVILTDRLMAIELPDEAVNKLRLEENDYVTVSVEEDKIVIKKAHNR | failed
MGVARPNFFIVGAAKCGTSSLDRYLSQHPDIYIPPKKEAHFFSIPDFPERFTGPGDEGMNLYTIRDEDAYMRLFDGVRGERAVGEASVFYLFYPGTAQRMYDAYPDAKILIMLRNPVDRAFSAYMHLVRDERETLSFRESLAKEEERIRQHYEPLWYYRAVGLYAAQVKRYLDVFGREQVKVILFEEFARDPVQVVRDCCAFLGVSTDFVPDTSIRHNESGVPKSRSLYNFIAKPNALKEIVKPFIPAAVRERLGNRAKSMVLGRMEMEPDLREELTAFFAPDVARLEALIHRDLSAWRRPARAAGSQ | not failed
MSMVVNSSDQAITMESLGISGHCDDVFCNELTATVIGEMTKRPTRLDIPIGVDGFVAPISSSADVTVTSREECREVEREGYEDTVNNEEISKPKSMKLLAHAGDDESIKRQENEDDDGRTTVDDDDGRGRINVSRLKALLMITTRE | failed
MNEKIVREQRGGEDSPSSVSAKSATAAASASTASMTFASAALESHKTTTITTASSSPRTSGASASASSSSRSASAPASSSSQQEKQPMLNATDMRELREIKQLLWGDNVREDVFKRWSQGFEFSKVEPSALVQKQGGPCAVIAPVQAYLLKIIIMDLPGIKLSEISLDKSQNLLIQALCDILKNCRAPRYRIVHLLRRRGNATEAGSTKKRSPAGEEESALAGQAAGSSEEVEEAAEATPASVSKLSQALQLEHDMHQELSPDEFHERLHTLHFKNIAAVARYYMENYDQLAHTYGVLLFMYSVFLTKGLELVAADISDTSEPLIHSTYGYGGQSLINLMLTGRAVAHVWDNEQDVGGLKLRGICEQSDIGFITLMEEMRYCTVGSFFKNPRYPVWVMGSDTHLTVLFSNEKRLVSPETPSETGRRIFKSYDPEGNNFISTTMLREVLIALNLVSEPAYVALMQKRLDPENLGIILLNAFMDEFFPLESRSTPDTFELMHYNGIPGSNENNKVRYYCGTAILLEGDLKSVCTSNPMVTCLQTKWPNIEINWHDGHMPSLN | failed
MAHLLEKTRKITSILKRSEEQLQDELPYNAITRQLADIIHCNACIINSKGRLLGYFMRYKTNTDRVEQFFQTKIFPDDYVQGANMIYETEANLPVEHDMSIFPIESRDDFPDGLTTIAPIHVSGIRLGSLIIWRNDKKFEDEDLVLVEIASTVVGIQLLNFQREEDEKNIRRRTAVTMAVNTLSYSELRAVSAILGELNGNEGKLTASVIADRIGITRSVIVNALRKLESAGIIESRSLGMKGTYLKVLISDIFEEVKKRDY | failed
LEPRKKAEEALRKSEERFAKAFRMAPVPSLVLYGDDLQALDINQAFSETFGYQAEELLGESTVACGLWQDGGAERLGELLAQSGSVRNVQLRLQHKDRNGLDCLVSAEAVSLNEQDCVLVALLDIS | not failed
MADPKELQDKFWKALKSDRTVMLGLDGVEDGHARPMTAQIEGDSGGPIWFFTSKDNALIAMLGQGRRVIGAFSSKGHDLFASISGSLREDTDPAVVDRLWNPYVAAWYEGGKDDPKLALLRLDADHAQIWLNGSSLLAGIKVLLGV | not failed
MVRVGMRAAPRVSLEALKAALGGLKLSEAKVYLITDWQDKRDQARYALLLHTGKKDLLVPDAFGPAFPGGEEALSELVGLLLAQGARRFYEAVVSPGEMTALLDLPPEELLKRVMAIANPTDPGIYLKRAA | not failed
MTENSRKTATELFEFLDGLGISHTTKQHEPVFTVAESQSLRDLIPGGHTKNLFVKDKKDQYFVLTVEENAVVDLKSVHKTIGAASRVSFGRPEKMLEYLGVVPGSVTVFGAINDTARQVTFVLDSDLLENELVNGHPLSNDQTTTIASKDLIRFLEATGHAPLVLKVSE | not failed
MNTLLLTAGRVLLALYFLIPGIMKFVSWDMHIQLMEKHEMPFVPVLLGLAGVFQIGAAILLIANRFTWIVALLLAGLVLVINVSLHDFWNYSGMEGAHEMQNFIKNLGIFAGLLVLSGHSMPECCKTKKKS | failed
MANNTTGFTRIIKAAGYSWKGLRAAWINEAAFRQEGVAVLLAVVIACWLDVDAITRVLLISSVMLVMIVEILNSAIEAVVDRIGSEYHELSGRAKDMGSAAVLIAIIVAVITWCILLWSHFG | failed
MTPNKEDYLKCIYEIGIDLHKITNKEIAARMQVSPPAVTEMIKRMKSENLILKDKECGYLLTDLGLKLVSELYRKHRLIEVFLVHHLDYTSDQIHEEAEVLEHTVSDLFVERLDKLLGFPKTCPHGGTIPAKGELLVEINNLPLADIKEAGAYRLTRVHDSFDILHYLDKHSLHIGDQLQVKQFDGFSNTFTILSNDEDLQVNMDIAKQLYVEKIN | not failed
MHIAIIGDQAATRQATTQLLSQLTTPTQPLQVTAYPTAEAFLFADQPADLLLLDIKLGSGMDGMTLAKQIREHDAATAIAFVSNYDEFVFDGYDVNALDYVIKPITSDKLQHLISKVAAQTQPKLLVFTTANGIQRVAMYDISAIEVTDHRLQVHTQKMTYTVAGQLKEFLPQLDENFIQIYRSIVINLNFLSQLEKNTVVMADGTSYPVSRQQAPLVKQAFFKHFRGLAHDSELEHHHHHH | failed
MRNDRSFIELRARERAHALLDDGSYRELLDPFEGIMSPWLGAQGIVPQSDDGMVVAKGTINGQPAVVIAIEGTFQGGSMGEVSGAKMAAALELAAEDNRNGIPTQAVLCLETGGVRLQEANLGLAAIADIHAAIVDLRRYTPVVGIITGTVGCFGGMSIAAALCSYLIVTREARLGLNGPQVIEQEAGIEEYDSRNRPFIWSMTGGEIRAASGLVDALVNDGVNAVKTAMIEAIAKGVPAQHRSDNYDDYLRRLSQFDTRQQADTAQIKQLFAREDK | not failed
KNASVITVGNEILKGRTVNTNAAFIGNFLTYHGYQVRRGFVVMDDLDEIGWAFRVALEVSDLVVSSGGLGPTFDDMTVEGFAKCIGQDLRIDEDALAMIKKKYGQADLTPQRLKMAKIPPSCRPIENPVGTAPGLICAVGGKKVIILPGVPKEMEALLKAMEKDIIIPD | not failed
MSAPADRSFAIERIFNAPVERVFRLWTDPLLVAQWWGIRDCTIPLCVLDVRVGGRWRIDMLTAGGALYRNQGSYLEVVENVRLSYRDEPDPEIREWAGKPPGRSRHTVSFTASGARTHVHFEVTLATAADRERLLALGMRGGWMQSFDRLEQLIGKGADHAG | failed
